Reference: patent publication US20240100176A1 (Eli Lilly, published 2024)

Assays:
[1] = target: T1, hexahistidine tagged human IL-4Rα ECD L42G (human, UniProt P24394 26-232); experiment: capture ELISA: Ab1 on anti-human IgG Fc, His-tagged receptor at 0.2 µg/mL, anti-His HRP
T1 construct: not shown: hexahistidine tag
Description: (§1) Example 2d. […] Briefly, thirty surface amino acid residue substitutions were introduced individually into hexahistidine tagged human IL-4Rα extra cellular domain (ECD) as follows: K2D, E6R, K22D, P26R, T31R, F41A, L42G, L43G, E45R, E52R, G56R, D66R, A71R, Q82G, K87D, E94R, H107A, D108R, P124R, D125R, D143R, R148D, L155R, R160D, S164R, S168R, Q181R, P192R, K195D, or H197G. Each mutant protein having a single amino acid residue substitution as described above was transiently expressed in CHO cells and purified using standard immobilized metal affinity chromatography techniques. […] The plates were then washed 3 times with PBST and the exemplified human IL-4Rα antibody was added to the wells at a final concentration of 1 μg/mL in PBS-casein and incubated for 1 hour at room temperature. The plates were washed 3 times with PBST, the IL-4Rα mutant proteins were serially diluted 5-fold from 1 μg/mL for 3 points. in PBS-casein and added to the plate at 50 μL/well and incubated for 1 hour at room temperature. The plates were washed 3 times with PBST and a 1000-fold dilution of anti-histidine tag antibody HRP conjugate (R&D Systems, Cat. #MAB050H) in PBS-casein was added and incubated for 45 minutes at room temperature. The plates were washed 3 times, TMB substrate (Pierce, Cat. #34028) was added per manufacturer instructions, the reaction was quenched with H₂SO₄, and absorbance was read at 450 nm on an ELISA plate reader.

[2] = target: T2, hexahistidine tagged human IL-4Rα ECD P26R (human, UniProt P24394 26-232); experiment: capture ELISA: Ab1 on anti-human IgG Fc, His-tagged receptor at 0.04 µg/mL, anti-His HRP
T2 construct: not shown: hexahistidine tag
Description: as §1

[3] = target: T3, hexahistidine tagged human IL-4Rα ECD E45R (human, UniProt P24394 26-232); experiment: as above
T3 construct: not shown: hexahistidine tag
T3 sequence (P24394 26-232 E70R): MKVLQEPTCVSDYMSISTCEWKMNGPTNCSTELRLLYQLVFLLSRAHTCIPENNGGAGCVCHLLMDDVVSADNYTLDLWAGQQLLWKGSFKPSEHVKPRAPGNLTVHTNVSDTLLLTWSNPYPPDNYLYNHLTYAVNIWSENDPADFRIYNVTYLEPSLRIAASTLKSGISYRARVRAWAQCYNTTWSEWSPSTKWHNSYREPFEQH
Description: as §1

[4] = target: T4, hexahistidine tagged human IL-4Rα ECD R160D (human, UniProt P24394 26-232); experiment: as above
T4 construct: not shown: hexahistidine tag
T4 sequence (P24394 26-232 R185D): as the sequence (P24394 26-232 E70R) above, with R45E, R160D counted along it
Description: as §1

[5] = target: T5, hexahistidine tagged human IL-4Rα ECD P192R (human, UniProt P24394 26-232); experiment: as above
T5 construct: not shown: hexahistidine tag
T5 sequence (P24394 26-232 P217R): as the sequence (P24394 26-232 E70R) above, with R45E, P192R counted along it
Description: as §1

[6] = target: T6, hexahistidine tagged human IL-4Rα ECD H197G (human, UniProt P24394 26-232); experiment: as above
T6 construct: not shown: hexahistidine tag
T6 sequence (P24394 26-232 H222G): as the sequence (P24394 26-232 E70R) above, with R45E, H197G counted along it
Description: as §1

[7] = target: T7, human IL-4Rα on cells (human PBMC B cells and CD4+ T cells, Daudi cells, HEK-Blue IL-4/IL-13 cells, myeloid … (human, UniProt P24394 26-825)); experiment: flow cytometry on human PBMCs, CD20 B cells, Alexa Fluor 647 labelled antibody, percent IL-4Rα positive cells
T7 sequence: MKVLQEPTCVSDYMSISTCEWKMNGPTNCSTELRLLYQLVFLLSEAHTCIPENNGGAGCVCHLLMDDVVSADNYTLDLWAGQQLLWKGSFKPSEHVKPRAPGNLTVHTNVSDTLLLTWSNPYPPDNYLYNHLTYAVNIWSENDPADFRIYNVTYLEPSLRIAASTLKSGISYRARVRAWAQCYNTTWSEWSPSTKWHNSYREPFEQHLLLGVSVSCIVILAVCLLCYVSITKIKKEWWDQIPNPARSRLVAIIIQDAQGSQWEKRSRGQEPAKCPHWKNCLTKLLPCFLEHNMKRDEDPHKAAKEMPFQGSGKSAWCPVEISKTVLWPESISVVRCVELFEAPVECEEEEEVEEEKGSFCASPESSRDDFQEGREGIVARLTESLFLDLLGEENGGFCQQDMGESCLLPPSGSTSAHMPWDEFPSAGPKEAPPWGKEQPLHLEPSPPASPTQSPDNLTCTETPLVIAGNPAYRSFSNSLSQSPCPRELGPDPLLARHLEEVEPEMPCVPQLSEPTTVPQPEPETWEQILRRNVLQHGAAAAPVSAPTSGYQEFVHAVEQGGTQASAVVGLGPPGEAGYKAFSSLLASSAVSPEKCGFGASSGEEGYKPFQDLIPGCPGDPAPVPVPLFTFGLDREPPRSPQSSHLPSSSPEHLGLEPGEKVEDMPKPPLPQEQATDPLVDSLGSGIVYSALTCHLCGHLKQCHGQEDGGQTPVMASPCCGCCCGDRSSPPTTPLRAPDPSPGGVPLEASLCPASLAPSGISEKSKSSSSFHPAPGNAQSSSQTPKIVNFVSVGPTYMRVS
Procedure: Example 3b. Binding to B cells and T cells: Binding of the exemplified anti-human IL-4Rα antibodies to B cells and T cells was tested in a Fluorescence Activated Cell Sorting (FACS) assay. […] Freshly isolated cells PBMCs were resuspended at 2×10⁶ cells/mL and allowed to rest for 15 minutes at room temperature, then plated at 100 μL/well into a round bottom 96-well plate (COSTAR®) and washed with FACS buffer (PBS containing 2% fetal bovine serum from Corning®). Exemplified anti-human IL-4Rα antibodies and the respective control IgG antibodies conjugated to Alexa Fluor® 647 according to manufacturer's protocol (Thermo Fisher Scientific) were added to the wells at 66.67 nM and diluted 4-fold in duplicate. Equivalent volume of 2× antibody cocktail containing: Human TruStain FcX™. FITC anti-human CD3 Antibody, Alexa Fluor® 700 anti-human CD4 Antibody (all from Biolegend®) and CD20 Monoclonal Antibody (2H7), PerCP-Cyanine5.5 (Thermo Fisher Scientific) was then added to the wells. Cells were incubated at 4° C. for 30 minutes, washed twice with FACS buffer and resuspended in a final volume of 100 μL FACS buffer. Viability dye, Sytox™ blue (Thermo Fisher Scientific), was added and the samples were analyzed via a flow cytometer (LSRFortessa™ X-20; BD BIOSCIENCES). Data analysis was performed using FlowJo software and statistical analysis was performed using GraphPad Prism 9. […]

T1 sequence (P24394 26-232 L67G): as the sequence (P24394 26-232 E70R) above, with L42G, R45E counted along it

ELISA (OD450) [1]: 1.48 OD450
ELISA (OD450) [2]: 0.883 OD450
ELISA (OD450) [3]: 1.58 OD450
ELISA (OD450) [4]: 1.2 OD450
ELISA (OD450) [5]: 1.22 OD450
ELISA (OD450) [6]: 0.967 OD450
EC50 [7]: 0.15 nM
B1: anti-human IL-4Rα antibody Ab1 (antibody, human IgG4 S228P, kappa)
heavy: QVQLVESGGGLVQPGGSLRLSCVASGFTFSHSSMNWVRQAPGKGLEWVSYISRATGAVYYADSVKGRFTISRDNAKNSLYLQMNSLRDEDTAVYYCAREPVFDYWGQGTLVTVSSASTKGPCVFPLAPCSRSTSESTAALGCLVKDYFPEPVTVSWNSGALTSGVHTFPAVLQSSGLYSLSSVVTVPSSSLGTKTYTCNVDHKPSNTKVDKRVESKYGPPCPPCPAPEFLGGPSVFLFPPKPKDTLMISRTPEVTCVVVDVSQEDPEVKFNWYVDGVEVHNAKTKPREEQFNSTYRVVSVLTVLHQDWLNGKEYKCKVSNKGLPSSIEKTISKAKGQPREPQVYTLPPSREEMTKNQVSLTCLVKGFYPSDICVEWESNGQPENNYKTTPPVLDSDGSFFLYSRLTVDKSRWQQGNVFSCSVMHEALHNHYTQKSLSLSLG
light: DIQMTQSPSAMSASVGDRVTITCRASQDISNYLAWFQQKPGKVPTRLIYAASSLQSGVPSRFSGSGSGTEFTLTISSLQPEDFATYYCLQWSSYPRTFGQGTKVEIKRTVAAPSVFIFPPSDEQLKSGTASVVCLLNNFYPREAKVQWKVDNALQSGNSQESVTEQDSKDSTYSLSSTLTLSKADYEKHKVYACEVTHQGLSSPVTKSFNRGEC
notes: human kappa light chain; also called anti-human IL-4Rα Ab1; unconjugated Ab1
